Source: the supplement of paper PMC10724198
± gives the standard deviation of the averaged measurements.

What was measured:
[1] = tested on: Saccharomyces cerevisiae; test: protein stability index of tFT-peptide fusion (C-terminal peptide) (PSI (0-1 scale)); higher = more stable (slower turnover)
Method: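 MPS profiling in S. cerevisiae of the tFT-X12 degron library: putative degron peptides plus stable controls, 12 aa, fused to the C-terminus of a sfGFP-mCherry timer. Cells are FACS-sorted into 8 mCherry/sfGFP bins and deep-sequenced. PSI runs from 0 (unstable) to 1 (stable). Backgrounds are wild type, das1Δ and doa10Δ at 30 °C, and wild type, das1Δ, cdc34-1 and cdc53-1 at 37 °C; 2-3 technical replicates each.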

[2] = tested on: Saccharomyces cerevisiae; test: as above; settings: genetic background: wild type; temperature: 30 C
[3] = genetic background: cdc34-1, temperature: 37 C
[4] = genetic background: cdc53-1, temperature: 37 C
[5] = genetic background: das1 deletion, temperature: 30 C
[6] = genetic background: das1 deletion, temperature: 37 C
[7] = genetic background: doa10 deletion, temperature: 30 C
[8] = genetic background: wild type, temperature: 30 C
[9] = genetic background: wild type, temperature: 37 C
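Also: PSI is a weighted mean of sequencing reads over stability bins, variants kept only with over 10 reads, mCherry proximal and sfGFP distal, peptide attached via GGGS linker.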

| Sequence | protein stability index [1, 3] | protein stability index [1, 4] | protein stability index [1, 5] | protein stability index [1, 6] | protein stability index [1, 7] | protein stability index [1, 8] | protein stability index [1, 9] | protein stability index [2] |
| --- | --- | --- | --- | --- | --- | --- | --- | --- |
| PYPSVIFFLHVY | 0.43 ± 0.0097 | 0.572 ± 0.0084 | 0.413 ± 0.029 | 0.56 ± 0.0098 | 0.15851 ± 3.4e-05 | 0.169 ± 0.025 | 0.237 ± 0.021 | 0.251 ± 0.049 |
| QIGSMLGVQGVG | 0.454 ± 0.017 | 0.526 ± 0.013 | 0.461 ± 0.013 | 0.516 ± 0.0073 | 0.495 ± 0.014 | 0.4672 ± 0.0041 | 0.545 ± 0.027 | 0.498 ± 0.031 |
| QILVSYSFLYFF | 0.5506 ± 0.0046 | 0.592 ± 0.041 | 0.44 ± 0.03 | 0.609 ± 0.023 | 0.3549 ± 0.0034 | 0.38 ± 0.017 | 0.539 ± 0.0058 | 0.509 ± 0.1 |
| QVVWAVPRICLV | 0.53508 ± 0.00047 | 0.567 ± 0.0099 | 0.438 ± 0.015 | 0.579 ± 0.0091 | 0.335 ± 0.015 | 0.358 ± 0.028 | 0.505 ± 0.019 | 0.445 ± 0.063 |
| QWRSWSFATLVT | 0.332 ± 0.017 | 0.321 ± 0.012 | 0.266 ± 0.049 | 0.424 ± 0.0064 | 0.22 ± 0.0082 | 0.258 ± 0.038 | 0.409 ± 0.0052 | 0.383 ± 0.0045 |
| RCRLYLNVVVLC | 0.269 ± 0.027 | 0.31 ± 0.0054 | 0.287 ± 0.047 | 0.413 ± 0.02 | 0.129 ± 0.01 | 0.122 ± 0.025 | 0.17 ± 0.0064 | 0.246 ± 0.07 |
| RCTFSFSFPFVL | 0.738 ± 0.032 | 0.754 ± 0.034 | 0.601 ± 0.0084 | 0.768 ± 0.0096 | 0.5998 ± 0.0024 | 0.602 ± 0.023 | 0.729 ± 0.011 | 0.596 ± 0.15 |
| RFCRVERAILLR | 0.334 ± 0.0068 | 0.251 ± 0.0061 | 0.33 ± 0.049 | 0.4436 ± 0.0035 | 0.622 ± 0.039 | 0.351 ± 0.026 | 0.41 ± 0.0053 | 0.481 ± 0.015 |
| RFFKMREAIRIS | 0.567 ± 0.088 | 0.5742 ± 0.00075 | 0.392 ± 0.022 | 0.59 ± 0.052 | 0.205 ± 0.0066 | 0.24 ± 0.032 | 0.482 ± 0.0067 | 0.339 ± 0.027 |
| RFPFFLPFIAFL | 0.491 ± 0.012 | 0.539 ± 0.019 | 0.55 ± 0.0097 | 0.637 ± 0.0021 | 0.306 ± 0.013 | 0.254 ± 0.032 | 0.39 ± 0.0084 | 0.37 ± 0.036 |
| RGCFVLRKTHLL | 0.635 ± 0.0083 | 0.715 ± 0.017 | 0.645 ± 0.018 | 0.7323 ± 0.0044 | 0.126 ± 0.0097 | 0.152 ± 0.014 | 0.275 ± 0.0075 | 0.254 ± 0.0058 |
| RGVRALFLLLSF | 0.493 ± 0.042 | 0.51346 ± 1.4e-05 | 0.392 ± 0.039 | 0.575 ± 0.011 | 0.264 ± 0.0047 | 0.272 ± 0.016 | 0.45 ± 0.02 | 0.375 ± 0.059 |
| RHAHPLTAQLPL | 0.683 ± 0.031 | 0.707 ± 0.024 | 0.657 ± 0.026 | 0.747 ± 0.0096 | 0.694 ± 0.021 | 0.671 ± 0.042 | 0.7168 ± 0.0032 | 0.7048 ± 0.0032 |
| RHIPSIILAHVV | 0.645 ± 0.057 | 0.67 ± 0.016 | 0.585 ± 0.033 | 0.707 ± 0.033 | 0.172 ± 0.019 | 0.192 ± 0.024 | 0.296 ± 0.01 | 0.295 ± 0.037 |
| RICACHGIRFIP | 0.7111 ± 0.0033 | 0.742 ± 0.0023 | 0.637 ± 0.04 | 0.774 ± 0.051 | 0.3558 ± 0.0018 | 0.392 ± 0.032 | 0.617 ± 0.016 | 0.444 ± 0.064 |
| RIFWMFFSQHIG | 0.569 ± 0.011 | 0.761 ± 0.054 | 0.652 ± 0.019 | 0.7247 ± 0.00085 | 0.106 ± 0.0093 | 0.139 ± 0.024 | 0.288 ± 0.017 | 0.197 ± 0.068 |
| RLCLLLCCRLWL | 0.53 ± 0.023 | 0.58 ± 0.013 | 0.442 ± 0.022 | 0.565 ± 0.012 | 0.461 ± 0.022 | 0.428 ± 0.011 | 0.55 ± 0.01 | 0.4961 ± 0.0041 |
| RLFVRIQLSLLF | 0.313 ± 0.036 | 0.351 ± 0.012 | 0.31 ± 0.025 | 0.398 ± 0.0092 | 0.33 ± 0.0035 | 0.265 ± 0.033 | 0.3506 ± 0.00077 | 0.351 ± 0.0049 |
| RLICFFSMYLRF | 0.239 ± 0.024 | 0.17 ± 0.064 | 0.367 ± 0.058 | 0.395 ± 0.006 | 0.614 ± 0.029 | 0.355 ± 0.026 | 0.369 ± 0.022 | 0.334 ± 0.14 |
| RLLFFVFLSSRF | 0.287 ± 0.019 | 0.268 ± 0.014 | 0.33 ± 0.025 | 0.472 ± 0.0093 | 0.489 ± 0.04 | 0.329 ± 0.035 | 0.4212 ± 0.0027 | 0.407 ± 0.0066 |

| Sequence | protein stability index [1, 3] | protein stability index [1, 4] | protein stability index [1, 5] | protein stability index [1, 6] | protein stability index [1, 7] | protein stability index [1, 8] | protein stability index [1, 9] | protein stability index [2] |
| --- | --- | --- | --- | --- | --- | --- | --- | --- |
| RLRCRVLQWVWG | 0.617 ± 0.0085 | 0.693 ± 0.0084 | 0.557 ± 0.038 | 0.6562 ± 0.0012 | 0.352 ± 0.0078 | 0.385 ± 0.027 | 0.571 ± 0.0062 | 0.471 ± 0.035 |
| RLSTTTTKQFIH | 0.668 ± 0.016 | 0.74 ± 0.013 | 0.661 ± 0.045 | 0.753 ± 0.021 | 0.302 ± 0.0053 | 0.348 ± 0.022 | 0.58 ± 0.011 | 0.4902 ± 0.0011 |
| RMTFFGFTVKML | 0.641 ± 0.025 | 0.7448 ± 0.0058 | 0.619 ± 0.0095 | 0.75 ± 0.011 | 0.196 ± 0.036 | 0.264 ± 0.03 | 0.537 ± 0.01 | 0.407 ± 0.031 |
| RNFSFTVICLAM | 0.48 ± 0.037 | 0.62 ± 0.05 | 0.485 ± 0.057 | 0.549 ± 0.0093 | 0.472 ± 0.026 | 0.474 ± 0.023 | 0.514 ± 0.019 | 0.511 ± 0.11 |
| RPCRPLIAAFVF | 0.531 ± 0.0097 | 0.537 ± 0.022 | 0.415 ± 0.045 | 0.5628 ± 0.0049 | 0.374 ± 0.012 | 0.421 ± 0.031 | 0.529 ± 0.0077 | 0.502 ± 0.011 |
| RQILYYRERFIP | 0.577 ± 0.043 | 0.715 ± 0.014 | 0.634 ± 0.011 | 0.694 ± 0.027 | 0.169 ± 0.012 | 0.196 ± 0.022 | 0.355 ± 0.017 | 0.313 ± 0.0065 |
| RRIKNRRLKQVT | 0.63 ± 0.076 | 0.694 ± 0.011 | 0.666 ± 0.064 | 0.722 ± 0.0067 | 0.214 ± 0.0054 | 0.283 ± 0.026 | 0.472 ± 0.036 | 0.43 ± 0.033 |
| RRQLVLVLSWVI | 0.466 ± 0.017 | 0.508 ± 0.018 | 0.346 ± 0.027 | 0.507 ± 0.019 | 0.299 ± 0.013 | 0.322 ± 0.017 | 0.506 ± 0.067 | 0.377 ± 0.025 |
| RRQQNHRQLCAT | 0.65 ± 0.092 | 0.708 ± 0.029 | 0.642 ± 0.028 | 0.7322 ± 0.0065 | 0.21 ± 0.018 | 0.259 ± 0.038 | 0.518 ± 0.038 | 0.401 ± 0.016 |
| RRRNQAAHLYSH | 0.617 ± 0.024 | 0.694 ± 0.044 | 0.67 ± 0.023 | 0.708 ± 0.0077 | 0.139 ± 0.022 | 0.159 ± 0.024 | 0.348 ± 0.011 | 0.268 ± 0.013 |
| RSFGGRPWVLFL | 0.623 ± 0.037 | 0.733 ± 0.023 | 0.638 ± 0.018 | 0.7549 ± 0.0052 | 0.106 ± 0.014 | 0.0971 ± 0.025 | 0.255 ± 0.019 | 0.192 ± 0.034 |
| RTRVRKTRIRTC | 0.624 ± 0.039 | 0.6934 ± 0.0022 | 0.637 ± 0.018 | 0.724 ± 0.015 | 0.234 ± 0.02 | 0.277 ± 0.0072 | 0.517 ± 0.011 | 0.392 ± 0.021 |
| RVFLVLFLILSG | 0.297 ± 0.021 | 0.428 ± 0.0072 | 0.287 ± 0.031 | 0.469 ± 0.0087 | 0.262 ± 0.0092 | 0.286 ± 0.018 | 0.425 ± 0.0055 | 0.344 ± 0.028 |
| RVIRHLRRISNF | 0.647 ± 0.035 | 0.745 ± 0.0042 | 0.661 ± 0.0098 | 0.705 ± 0.046 | 0.142 ± 0.009 | 0.16 ± 0.045 | 0.307 ± 0.034 | 0.369 ± 0.021 |
| RVLSLLGCFVVF | 0.501 ± 0.03 | 0.486 ± 0.013 | 0.448 ± 0.028 | 0.585 ± 0.018 | 0.485 ± 0.017 | 0.429 ± 0.013 | 0.558 ± 0.026 | 0.4651 ± 0.0023 |
| RVLVEIVYFKVF | 0.244 ± 0.0031 | 0.395 ± 0.032 | 0.256 ± 0.04 | 0.474 ± 0.012 | 0.037 ± 0.014 | 0.05 ± 0.0044 | 0.055 ± 0.00095 | 0.134 ± 0.0018 |
| RVRNSQVVAVVG | 0.491 ± 0.014 | 0.576 ± 0.014 | 0.354 ± 0.038 | 0.586 ± 0.0092 | 0.3291 ± 0.0023 | 0.382 ± 0.018 | 0.548 ± 0.022 | 0.477 ± 0.011 |
| RVTEYHTKYKIV | 0.487 ± 0.13 | 0.673 ± 0.076 | 0.656 ± 0.025 | 0.728 ± 0.077 | 0.0697 ± 0.0072 | 0.0674 ± 0.021 | 0.0807 ± 0.021 | 0.153 ± 0.012 |
| RWAAAVPLLVVG | 0.0233 ± 0.0059 | 0.0234 ± 0.0027 | 0.143 ± 0.026 | 0.105 ± 0.0046 | 0.111 ± 0.018 | 0.137 ± 0.032 | 0.0908 ± 0.0062 | 0.211 ± 0.022 |
